From PMC7641746 (Nucleic Acids Research, 2020) come the findings set out here.

Data set [1] concerns the target VDR;RXRα ΔNTD;MED1 (50-660) (Homo sapiens;Homo sapiens;Homo sapiens, UniProt P11473;P19793;Q15648 1-427;130-462;50-660, ||). The experiment in a line: SEC-MALLS.
For the next data set, the target named is VDR;RXRα ΔNTD (Homo sapiens;Homo sapiens, UniProt P11473;P19793 1-427;130-462, |). In words: ITC. (In general: In ITC the heat of successive injections is recorded.)
The next data set addresses MED1 (50–660) (human, UniProt Q15648 50-660). In words: HDX-MS.

Chain of MED1 (50–660) (Q15648 50-660): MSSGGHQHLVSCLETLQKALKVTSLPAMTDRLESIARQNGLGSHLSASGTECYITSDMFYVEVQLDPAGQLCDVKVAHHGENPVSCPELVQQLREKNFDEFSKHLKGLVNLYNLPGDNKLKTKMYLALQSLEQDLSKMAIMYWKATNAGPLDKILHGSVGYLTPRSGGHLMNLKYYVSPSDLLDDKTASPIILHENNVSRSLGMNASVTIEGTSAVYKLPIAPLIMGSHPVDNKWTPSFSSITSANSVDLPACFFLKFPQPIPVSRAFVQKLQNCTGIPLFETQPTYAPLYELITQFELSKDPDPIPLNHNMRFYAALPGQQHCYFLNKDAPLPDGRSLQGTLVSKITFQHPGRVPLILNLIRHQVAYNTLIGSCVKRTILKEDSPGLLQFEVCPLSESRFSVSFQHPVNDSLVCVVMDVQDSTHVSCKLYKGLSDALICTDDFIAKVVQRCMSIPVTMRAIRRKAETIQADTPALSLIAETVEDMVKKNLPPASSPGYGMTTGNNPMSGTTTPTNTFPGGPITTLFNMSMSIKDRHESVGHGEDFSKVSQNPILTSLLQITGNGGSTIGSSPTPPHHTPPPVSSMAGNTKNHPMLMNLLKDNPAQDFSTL
Chain of VDR;RXRα ΔNTD;MED1 (50-660) (Q15648 50-660, stated change not applied, one chain of several): as the sequence (Q15648 50-660) above

B1: rat Nppa (rANF1) DR3 VDRE (dsDNA)
DNA 1: AGAGGTCATGAAGGACATT
DNA 2: AATGTCCTTCATGACCTCT
In the case of B1, the binding result (in data set [1]; with VDR;RXRα ΔNTD) was “binds” throughout.

B2: HsRXRαΔNTD (130–462) (receptor)
chain: FTKHICAICGDRSSGKHYGVYSCEGCKGFFKRTVRKDLTYTCRDNKDCLIDKRQRNRCQYCRYQKCLAMGMKREAVQEERQRGKDRNENEVESTSSANEDMPVERILEAELAVEPKTETYVEANMGLNPSSPNDPVTNICQAADKQLFTLVEWAKRIPHFSELPLDDQVILLRAGWNELLIASFSHRSIAVKDGILLATGLHVHRNSAHSAGVGAIFDRVLTELVSKMRDMQMDKTELGCLRAIVLFNPDSKGLSNPAEVEALREKVYASLEAYCKHKYPEQPGRFAKLLLRLPALRSIGLKCLEHLFFFKLIGDTPIDTFLMEMLEAPHQMT
Consider B2, for which, in the data set with MED1 (50–660), the binding result is reported as “binds”.

B3: full-length HsVDR (1–427) (receptor)
chain: MEAMAASTSLPDPGDFDRNVPRICGVCGDRATGFHFNAMTCEGCKGFFRRSMKRKALFTCPFNGDCRITKDNRRHCQACRLKRCVDIGMMKEFILTDEEVQRKREMILKRKEEEALKDSLRPKLSEEQQRIIAILLDAHHKTYDPTYSDFCQFRPPVRVNDGGGSHPSRPNSRHTPSFSGDSSSSCSDHCITSSDMMDSSSFSNLDLSEEDSDDPSVTLELSQLSMLPHLADLVSYSIQKVIGFAKMIPGFRDLTSEDQIVLLKSSAIEVIMLRSNESFTMDDMSWTCGNQDYKYRVSDVTKAGHSLELIEPLIKFQVGLKKLNLHEEEHVLLMAICIVSPDRPGVQDAALIEAIQDRLSNTLQTYIRCRHPPPGSHLLYAKMIQKLADLRSLNEEHSKQYRCLSFQPECSMKLTPLVLEVFGNEIS
On to B3, for which the binding result with MED1 (50–660) is recorded as “binds”.
